Among the data in US20250051433A1 are EC50 values, retold here.

Broadly, the EC50 is the concentration needed to bring the measured effect to its halfway point.

For experiment [1], the target named is human long form TSLP expressed on cell membrane. As to the kind of experiment: FACS on cells expressing the membrane human long-form TSLP fusion protein, MFI; ambiguous fit of a flat curve (Bottom 609.8, Top ~ 596.1), see non_binding; unit taken from the concentration axis.
For experiment [2] the target is unchanged. As to the kind of experiment: FACS on cells expressing the membrane human long-form TSLP fusion protein, MFI; fit of a flat curve (Bottom 626.4, Top ~ 628.6), see non_binding; unit taken from the concentration axis.
For experiment [3] the target is unchanged. As to the kind of experiment: FACS on cells expressing the membrane human long-form TSLP fusion protein, MFI; ambiguous fit of a flat curve (Bottom 799.3, Top 857.9), see non_binding; unit taken from the concentration axis.
The target is the same in experiment [4]. As to the kind of experiment: FACS on cells expressing the membrane human long-form TSLP fusion protein, MFI; ambiguous fit of a flat curve (~ 906.7, ~ 1190), column headed IC50, see non_binding; unit taken from the concentration axis.
Experiment [5] shares this target. The experiment in a line: FACS on cells expressing the membrane human long-form TSLP fusion protein, MFI; fit of a flat curve (Bottom 695.0, Top 1001), see non_binding; unit taken from the concentration axis.
The target in experiment [6] is membrane short-form huTSLP fusion protein (human). As to the kind of experiment: FACS on cells expressing membrane short-form huTSLP, MFI; ambiguous fit of a flat curve (Bottom 692.9, Top 827.7), see non_binding; unit taken from the concentration axis.
Chain of membrane short-form huTSLP fusion protein (human) (chain, as listed by the source limits assumed): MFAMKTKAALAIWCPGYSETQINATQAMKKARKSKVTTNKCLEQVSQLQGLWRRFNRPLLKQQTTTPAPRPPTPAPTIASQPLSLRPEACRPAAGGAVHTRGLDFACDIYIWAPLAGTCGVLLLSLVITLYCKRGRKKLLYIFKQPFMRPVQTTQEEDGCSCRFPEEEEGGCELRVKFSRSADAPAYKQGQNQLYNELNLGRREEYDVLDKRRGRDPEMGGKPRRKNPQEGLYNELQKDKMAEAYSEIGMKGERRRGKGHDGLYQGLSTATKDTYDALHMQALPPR
The target of experiment [7] is human long-form TSLP protein (Acro, tsp-h5255 or tsp-h52ha) (human) (UniProt Q969D9). As to the kind of experiment: ELISA on coated human long-form TSLP, OD450; ambiguous fit of a flat curve (Bottom 0.07414, Top ~ 1078), see non_binding; unit taken from the concentration axis. In general terms: An ELISA detects its analyte on a solid surface through an enzyme-linked reagent.
Chain of human long-form TSLP protein (Acro, tsp-h5255 or tsp-h52ha) (human) (Q969D9 29-159 R127A/R130A limits assumed): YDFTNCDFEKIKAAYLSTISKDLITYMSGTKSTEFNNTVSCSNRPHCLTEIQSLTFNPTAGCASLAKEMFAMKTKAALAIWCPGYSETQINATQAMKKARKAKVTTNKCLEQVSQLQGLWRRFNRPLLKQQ

Chain of human long form TSLP expressed on cell membrane (fusion protein, as listed by the source): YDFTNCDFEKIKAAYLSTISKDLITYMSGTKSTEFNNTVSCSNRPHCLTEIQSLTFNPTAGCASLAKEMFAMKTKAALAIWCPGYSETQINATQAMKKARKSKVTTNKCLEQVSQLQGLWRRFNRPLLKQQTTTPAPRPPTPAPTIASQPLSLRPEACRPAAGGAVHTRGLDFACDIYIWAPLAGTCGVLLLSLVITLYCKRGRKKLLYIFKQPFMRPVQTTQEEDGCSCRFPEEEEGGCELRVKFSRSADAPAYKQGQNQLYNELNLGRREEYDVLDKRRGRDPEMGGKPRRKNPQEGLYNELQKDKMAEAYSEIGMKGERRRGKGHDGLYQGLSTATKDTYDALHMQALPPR

As to IgG2 Isotype (antibody), the EC50 in experiment [1] amounted to 0.322 µg/mL; in experiment [2], 5.86 µg/mL; in experiment [3], 0.0117 µg/mL.
As for Isotype (antibody), the EC50 in experiment [4] worked out at 0.0411 µg/mL; in experiment [5] it was 21.1 µg/mL.
Regarding Isotype mAb (antibody), the EC50 in experiment [6] is 0.0115 µg/mL; in experiment [7], 40.8 µg/mL.
